From patent US20090180952A1
One block for each binder: values may come before it.

Assays:
[1] = target: recombinant soluble urokinase plasminogen activator receptor (suPAR, aa 1-279) (UniProt Q03405); assay: direct binding assay (format and antigen form not stated)
[2] = target: uPAR on the surface of HeLa cells, Q03405; assay: 125I-ATN-658 saturation binding to HeLa cells
Chain of uPAR on the surface of HeLa cells, Q03405 (Q03405 23-305 limits assumed): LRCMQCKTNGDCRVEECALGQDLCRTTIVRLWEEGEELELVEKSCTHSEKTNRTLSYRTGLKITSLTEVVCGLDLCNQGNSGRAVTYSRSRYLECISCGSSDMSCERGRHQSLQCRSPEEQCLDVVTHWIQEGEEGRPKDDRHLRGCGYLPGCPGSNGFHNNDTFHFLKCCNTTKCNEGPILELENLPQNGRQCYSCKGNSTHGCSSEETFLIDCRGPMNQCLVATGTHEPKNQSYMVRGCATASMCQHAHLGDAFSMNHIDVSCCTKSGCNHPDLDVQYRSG

- Kd [1]: 2 nM
B1: mAb ATN-615 (antibody, IgG1, V domains shown)
VH: VKLQQSGPEVVKPGASVKISCKASGYSFTNFYIHWVKQRPGQGLEWIGWIFHGSDNTEYNEKFKDKATLTADTSSSTAYMQLSSLTSEDSAVYFCARWGPHWYFDVWGQGTTVTVSS
VL: DIVLTQSPDITAASLGQKVTITCSASSSVSYMHWYQQKSGTSPKPWIFEISKLASGVPARFSGSGSGTSYSLTISSMEAEDAAIYYCQQWNYPFTFGGGTKLEIKR

- Kd [2]: 1.5 nM
B2: mAb ATN-658 (antibody, IgG1, V domains shown)
VL: not shown
VH: VQLQESGPELVKTGASVKISCKASGYSFTSYYMHWVKQSHGKSLEWIGEINPYNGGASYNQKIKGRATFTVDTSSRTAYMQFNSLTSEDSAVYYCARSIYGHSVLDYWGQGTTVTVS
modifications: not checked
